Literature values as cited in paper PMC2994893.

Target: Lck phospho-Tyr505 motif pTyr505 motif (Homo sapiens) (UniProt P06239)

Kd: 300 nM
Substance: Lck SH2 (from UniProt P06239)
